Data from the supplement of paper PMC10724198.
± gives the standard deviation of the averaged measurements.

system: Saccharomyces cerevisiae; experiment: protein stability index of tFT-peptide fusion (C-terminal peptide) (PSI (0-1 scale)); higher = more stable (slower turnover); settings: genetic background: wild type; temperature: 30 C
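Also: PSI is a weighted mean of sequencing reads over stability bins, variants kept only with over 10 reads, mCherry proximal and sfGFP distal, peptide attached via GGGS linker.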

Q: Which protein stability index does the source give for TPSIFNRTNGPK here?
A: Its protein stability index is 0.738 ± 0.043.

Q: For TPTSLPGPRVLS, which protein stability index is on record?
A: Its protein stability index is 0.6596 ± 0.0054.

Q: For TQEQVQKKLLKS, which protein stability index is on record?
A: Its protein stability index is 0.665 ± 0.015.

Q: Which protein stability index does the source give for TQLEHQRESKSI here?
A: Its protein stability index is 0.672 ± 0.021.

Q: With TQNYPSAFAIPA as the sequence, how does the protein stability index read?
A: The protein stability index was 0.552 ± 0.043.

Q: How did the protein stability index turn out when TRDEGWSSAARK was run?
A: The protein stability index was 0.637 ± 0.062.

Q: For TRETKKSIKKQN, which protein stability index is on record?
A: The protein stability index was 0.673 ± 0.058.

Q: For TRFCDFTSSVTT, which protein stability index is on record?
A: Its protein stability index is 0.711 ± 0.041.

Q: TRGRGDGQLDSA was tested. Which protein stability index did it give?
A: Its protein stability index is 0.699 ± 0.024.

Q: Which protein stability index does the source give for TRGRGLSGGRFF here?
A: Its protein stability index is 0.658 ± 0.037.

Q: For TRNGQKVGGVGA, which protein stability index is on record?
A: The protein stability index was 0.725 ± 0.029.

Q: TRNNDKQTDTIV was tested. Which protein stability index did it give?
A: The protein stability index was 0.729 ± 0.048.

Q: How did the protein stability index turn out when TRPGKRNGRPPR was run?
A: Its protein stability index is 0.6995 ± 0.0008.

Q: TRPSGSFLALPP was tested. Which protein stability index did it give?
A: Its protein stability index is 0.685 ± 0.05.

Q: TRPTQNKQIKNI was tested. Which protein stability index did it give?
A: Its protein stability index is 0.6141 ± 0.0032.

Q: TRRLILSPIRHF was tested. Which protein stability index did it give?
A: Its protein stability index is 0.636 ± 0.015.

Q: How did the protein stability index turn out when TRSISPGTFWTS was run?
A: The protein stability index was 0.723 ± 0.018.

Q: For TRSSHSHLETFV, which protein stability index is on record?
A: The protein stability index was 0.684 ± 0.03.

Q: For TSGLGYVDCPKL, which protein stability index is on record?
A: Its protein stability index is 0.709 ± 0.033.

Q: With TSGNSTALKMGR as the sequence, how does the protein stability index read?
A: The protein stability index was 0.741 ± 0.059.

Q: Which protein stability index does the source give for TSIDRLLIRYEK here?
A: The protein stability index was 0.649 ± 0.12.

Q: TSKHLTQRKESK was tested. Which protein stability index did it give?
A: The protein stability index was 0.659 ± 0.0082.

Q: Which protein stability index does the source give for TSKRRRWGTTRK here?
A: Its protein stability index is 0.672 ± 0.074.

Q: For TSPQHPWPPAPL, which protein stability index is on record?
A: The protein stability index was 0.694 ± 0.06.

Q: TSPSPPPTPCRS was tested. Which protein stability index did it give?
A: The protein stability index was 0.702 ± 0.018.

Q: Which protein stability index does the source give for TSPTPFVSCSLP here?
A: Its protein stability index is 0.629 ± 0.044.

Q: For TSPVPPSTPAPP, which protein stability index is on record?
A: Its protein stability index is 0.6686 ± 0.0045.

Q: With TSRNFPGLHDNY as the sequence, how does the protein stability index read?
A: Its protein stability index is 0.673 ± 0.052.

Q: How did the protein stability index turn out when TSVAYVWRLFTE was run?
A: The protein stability index was 0.597 ± 0.016.

Q: How did the protein stability index turn out when TSYEAKKKWQVI was run?
A: Its protein stability index is 0.645 ± 0.025.

Q: Which protein stability index does the source give for TSYNLPAAPHPV here?
A: The protein stability index was 0.679 ± 0.037.

Q: For TTKNTSIKTKLK, which protein stability index is on record?
A: Its protein stability index is 0.67 ± 0.026.

Q: Which protein stability index does the source give for TTKTGQVEIYKV here?
A: The protein stability index was 0.661 ± 0.033.

Q: Which protein stability index does the source give for TTLSMYFCMCVL here?
A: Its protein stability index is 0.638 ± 0.14.

Q: How did the protein stability index turn out when TTNGGPGNGAQN was run?
A: Its protein stability index is 0.66543 ± 0.00044.

Q: With TTNLDKKILKTS as the sequence, how does the protein stability index read?
A: The protein stability index was 0.6525 ± 0.0022.

Q: With TTPPFVSALPLS as the sequence, how does the protein stability index read?
A: Its protein stability index is 0.71142 ± 0.00043.

Q: How did the protein stability index turn out when TTPTAPCLSSHD was run?
A: The protein stability index was 0.69 ± 0.042.

Q: With TTRLARNEQVKR as the sequence, how does the protein stability index read?
A: The protein stability index was 0.62 ± 0.1.

Q: TVAPNFIPTSTS was tested. Which protein stability index did it give?
A: The protein stability index was 0.662 ± 0.044.

Q: With TVFPPLPTLPCV as the sequence, how does the protein stability index read?
A: The protein stability index was 0.792 ± 0.1.

Q: TVLRMFPPRSIW was tested. Which protein stability index did it give?
A: Its protein stability index is 0.67 ± 0.046.

Q: For TVPAKQHLSGYE, which protein stability index is on record?
A: The protein stability index was 0.679 ± 0.011.

Q: For TVQPGAVRFILF, which protein stability index is on record?
A: The protein stability index was 0.703 ± 0.028.

Q: Which protein stability index does the source give for TVRKMEKKKDGG here?
A: Its protein stability index is 0.663 ± 0.012.

Q: For TVVVGHSRLVVG, which protein stability index is on record?
A: The protein stability index was 0.703 ± 0.027.

Q: How did the protein stability index turn out when TVYSPAYSIIHQ was run?
A: Its protein stability index is 0.584 ± 0.053.

Q: TWGACGKMLSDR was tested. Which protein stability index did it give?
A: Its protein stability index is 0.682 ± 0.026.

Q: With TWIEGGVDRQRG as the sequence, how does the protein stability index read?
A: Its protein stability index is 0.683 ± 0.074.

Q: For TWIKVPVERTRP, which protein stability index is on record?
A: The protein stability index was 0.683 ± 0.053.

Q: With TYIRRTICGVLS as the sequence, how does the protein stability index read?
A: Its protein stability index is 0.587 ± 0.021.

Q: TYLCLLVRDNRG was tested. Which protein stability index did it give?
A: The protein stability index was 0.706 ± 0.012.

Q: TYNVVKSMVDNK was tested. Which protein stability index did it give?
A: Its protein stability index is 0.672 ± 0.026.

Q: Which protein stability index does the source give for TYPRPGSSIWLR here?
A: Its protein stability index is 0.572 ± 0.022.

Q: For TYRLLAEPTPPA, which protein stability index is on record?
A: Its protein stability index is 0.702 ± 0.018.

Q: TYYCFYCHPSLL was tested. Which protein stability index did it give?
A: Its protein stability index is 0.699 ± 0.057.

Q: For VAAFGGGATNGV, which protein stability index is on record?
A: Its protein stability index is 0.736 ± 0.029.

Q: VAGQISGLIYFR was tested. Which protein stability index did it give?
A: Its protein stability index is 0.699 ± 0.044.

Q: With VAHSPLPLILPI as the sequence, how does the protein stability index read?
A: The protein stability index was 0.629 ± 0.041.

Q: For VAPPRQGSPASR, which protein stability index is on record?
A: Its protein stability index is 0.725 ± 0.057.

Q: With VARFRGGPVPSF as the sequence, how does the protein stability index read?
A: Its protein stability index is 0.67 ± 0.045.

Q: For VARGCNSVYGYA, which protein stability index is on record?
A: Its protein stability index is 0.653 ± 0.012.

Q: VASITEIRKKGR was tested. Which protein stability index did it give?
A: Its protein stability index is 0.629 ± 0.022.

Q: VATGVFADPMMC was tested. Which protein stability index did it give?
A: Its protein stability index is 0.667 ± 0.11.

Q: With VAVCGTTNGKNA as the sequence, how does the protein stability index read?
A: The protein stability index was 0.75 ± 0.033.

Q: Which protein stability index does the source give for VAVGIVGGWWGV here?
A: Its protein stability index is 0.843 ± 0.11.

Q: Which protein stability index does the source give for VAVIGAPPGNSR here?
A: The protein stability index was 0.672 ± 0.029.

Q: VAVRCVLWEGFS was tested. Which protein stability index did it give?
A: The protein stability index was 0.76 ± 0.084.

Q: VAVSLFVPVLFL was tested. Which protein stability index did it give?
A: Its protein stability index is 0.567 ± 0.061.

Q: For VAWTYDYTGVLR, which protein stability index is on record?
A: Its protein stability index is 0.626 ± 0.037.

Q: How did the protein stability index turn out when VCAASAGGARAG was run?
A: Its protein stability index is 0.6213 ± 0.0025.

Q: VCFVGSCFKLVL was tested. Which protein stability index did it give?
A: Its protein stability index is 0.6324 ± 0.0032.

Q: With VCGGVWGGDNGG as the sequence, how does the protein stability index read?
A: The protein stability index was 0.771 ± 0.049.

Q: For VCGLCGGFMGLA, which protein stability index is on record?
A: Its protein stability index is 0.69 ± 0.042.

Q: How did the protein stability index turn out when VCLFPDTMSWDC was run?
A: Its protein stability index is 0.803 ± 0.075.

Q: VCLVHSPFDTLP was tested. Which protein stability index did it give?
A: Its protein stability index is 0.699 ± 0.037.

Q: For VCLVLGGVEWCV, which protein stability index is on record?
A: The protein stability index was 0.6861 ± 0.004.

Q: Which protein stability index does the source give for VCRGRGVEGIGW here?
A: The protein stability index was 0.695 ± 0.12.

Q: VCSVLFPFLPLP was tested. Which protein stability index did it give?
A: The protein stability index was 0.7043 ± 0.0056.

Q: With VCSVVGGGYSWG as the sequence, how does the protein stability index read?
A: The protein stability index was 0.686 ± 0.12.

Q: For VCVQECMPTAWR, which protein stability index is on record?
A: The protein stability index was 0.704 ± 0.036.

Q: How did the protein stability index turn out when VDASGYDEQSVH was run?
A: Its protein stability index is 0.6622 ± 0.0018.

Q: VDNTRKRSTNSV was tested. Which protein stability index did it give?
A: The protein stability index was 0.694 ± 0.021.

Q: Which protein stability index does the source give for VDSCASVGQGGL here?
A: Its protein stability index is 0.702 ± 0.044.

Q: Which protein stability index does the source give for VDVPAGPGGGAC here?
A: Its protein stability index is 0.641 ± 0.077.

Q: Which protein stability index does the source give for VDVWCGRGVGRG here?
A: Its protein stability index is 0.707 ± 0.031.

Q: VEAIKTSMFFLW was tested. Which protein stability index did it give?
A: Its protein stability index is 0.711 ± 0.055.

Q: For VEFWGAVCNDCL, which protein stability index is on record?
A: Its protein stability index is 0.706 ± 0.043.

Q: With VEGGGYVVHSGG as the sequence, how does the protein stability index read?
A: Its protein stability index is 0.657 ± 0.066.

Q: For VEPLLGHPISRD, which protein stability index is on record?
A: Its protein stability index is 0.702 ± 0.049.

Q: For VERRTDRNLGSV, which protein stability index is on record?
A: Its protein stability index is 0.645 ± 0.007.

Q: VFAPWLFLFGFF was tested. Which protein stability index did it give?
A: The protein stability index was 0.521 ± 0.017.

Q: How did the protein stability index turn out when VFCGRVVVGSVV was run?
A: Its protein stability index is 0.65745 ± 0.0006.

Q: With VFCSCTARPPLR as the sequence, how does the protein stability index read?
A: Its protein stability index is 0.717 ± 0.023.

Q: With VFCTFVGPRSDV as the sequence, how does the protein stability index read?
A: The protein stability index was 0.775 ± 0.13.

Q: For VFESGRYLRVAP, which protein stability index is on record?
A: Its protein stability index is 0.777 ± 0.05.

Q: VFGAHGRYQDSR was tested. Which protein stability index did it give?
A: Its protein stability index is 0.607 ± 0.054.

Q: For VFGRGGRGGPLG, which protein stability index is on record?
A: The protein stability index was 0.647 ± 0.049.

Q: With VFLCNGVGGRGG as the sequence, how does the protein stability index read?
A: The protein stability index was 0.681 ± 0.27.

Q: How did the protein stability index turn out when VFLLFFFPCSSR was run?
A: The protein stability index was 0.528 ± 0.013.

Q: Which protein stability index does the source give for VFLPPPPPPAPP here?
A: Its protein stability index is 0.639 ± 0.011.
